In doi:10.1101/197673:

Target: TM-JM peptide of EGFR labelled at the N-terminus with Cy3 or Cy5
Experiment: FRET or BRET

For “TM-JM peptide of EGFR labelled at the N-terminus with Cy3 or Cy5”, which percent of peptide dimers with a high FRET efficiency state in the trajectories is on record?
The percent of peptide dimers with a high FRET efficiency state in the trajectories was 95%.
